# Experimental data reported in patent US20240327535A1 (EISAI R AND D MANAGEMENT, published 2024).
# Read-outs that look alike come from different tables or passages of the source.
# T1: extracellular domain of human BCMA (human, UniProt Q02223 1-54)
# T1 construct: amine-linked to Octet AR2G tips; also called hsBCMA; BCMA (human)
# T1 sequence: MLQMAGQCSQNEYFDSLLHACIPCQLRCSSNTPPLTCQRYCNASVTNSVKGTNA
# B1: AB200-R1a-Fab_VH1 (Fab, V domains shown)
# VH: QVQLVQSGAEVKKPGSSVKVSCKASGGTFSNYWMHWVRQAPGQGLEWMGATYRGHSETYYNEKFKGRVTITADKSTSTAYMELSSLRSEDTAVYYCARGAIYHGYDVLDDWGQGTLVTVSS
# VL: DIQMTQSPSSLSASVGDRVTITCSATQDISNYLNWYQQKPGKAPKLLIYFTSNLQSGVPSRFSGSGSGTDFTLTISSLQPEDFATYYCQQYRKLPWTFGQGTKLEIKR
# B2: AB200-R1H32-R2Vk33 (Fab, V domains shown)
# VH: QVQLVQSGAEVKKPGSSVKVSCKASGGTFSNYWMHWVRQAPGQGLEWMGATYRSHSDTYYNQKFKSRVTITADKSTSTAYMELSSLRSEDTAVYYCARGAIYHGYDVIDNWGQGTLVTVSS
# VL: DIQMTQSPSSLSASVGDRVTITCRASQSISSYLNWYQQKPGKAPKLLIYATSNLQIGVPSRFSGSGSGTDFTLTISSLQPEDFATYYCQQFRKIPWTFGQGTKLEIKR
# B3: AB200-R1H32-R2Vk19 (Fab, V domains shown)
# VH: QVQLVQSGAEVKKPGSSVKVSCKASGGTFSNYWMHWVRQAPGQGLEWMGATYRSHSDTYYNQKFKSRVTITADKSTSTAYMELSSLRSEDTAVYYCARGAIYHGYDVIDNWGQGTLVTVSS
# VL: DIQMTQSPSSLSASVGDRVTITCRASQSISSYLNWYQQKPGKAPKLLIYATSNLQSGVPSRFSGSGSGTDFTLTISSLQPEDFATYYCQQYRRLPWSFGQGTKLEIKR
# B4: AB200-R1a-Fab_VH3 (Fab, V domains shown)
# VH: QVQLVQSGAEVKKPGSSVKVSCKASGGTFSNYWMSWVRQAPGQGLEWMGATYRGHSQTYYNQKFKGRVTITADKSTSTAYMELSSLRSEDTAVYYCARGAVYHGYDVLDNWGQGTLVTVSS
# VL: DIQMTQSPSSLSASVGDRVTITCSATQDISNYLNWYQQKPGKAPKLLIYFTSNLQSGVPSRFSGSGSGTDFTLTISSLQPEDFATYYCQQYRKLPWTFGQGTKLEIKR
# B5: AB200-R1H32-R2Vk43 (Fab, V domains shown)
# VH: QVQLVQSGAEVKKPGSSVKVSCKASGGTFSNYWMHWVRQAPGQGLEWMGATYRSHSDTYYNQKFKSRVTITADKSTSTAYMELSSLRSEDTAVYYCARGAIYHGYDVIDNWGQGTLVTVSS
# VL: DIQMTQSPSSLSASVGDRVTITCRASQSISSYINWYQQKPGKAPKLLIYATSNIQSGVPSRFSGSGSGTDFTLTISSLQPEDFATYYCQQFRKIPWTFGQGTKLEIKR
# B6: AB200-R1H32-R2Vk29 (Fab, V domains shown)
# VH: QVQLVQSGAEVKKPGSSVKVSCKASGGTFSNYWMHWVRQAPGQGLEWMGATYRSHSDTYYNQKFKSRVTITADKSTSTAYMELSSLRSEDTAVYYCARGAIYHGYDVIDNWGQGTLVTVSS
# VL: DIQMTQSPSSLSASVGDRVTITCRASQSISSYLNWYQQKPGKAPKLLIYATSNLQIGVPSRFSGSGSGTDFTLTISSLQPEDFATYYCQQYRRLPWSFGQGTKLEIKR
# B7: AB200-R1H32-R2Vk38 (Fab, V domains shown)
# VH: QVQLVQSGAEVKKPGSSVKVSCKASGGTFSNYWMHWVRQAPGQGLEWMGATYRSHSDTYYNQKFKSRVTITADKSTSTAYMELSSLRSEDTAVYYCARGAIYHGYDVIDNWGQGTLVTVSS
# VL: DIQMTQSPSSLSASVGDRVTITCRASQSISSYINWYQQKPGKAPKLLIYATSNLQSGVPSRFSGSGSGTDFTLTISSLQPEDFATYYCQQFRKIPWTFGQGTKLEIKR
# B8: AB200-R1H32-R2Vk34 (Fab, V domains shown)
# VH: QVQLVQSGAEVKKPGSSVKVSCKASGGTFSNYWMHWVRQAPGQGLEWMGATYRSHSDTYYNQKFKSRVTITADKSTSTAYMELSSLRSEDTAVYYCARGAIYHGYDVIDNWGQGTLVTVSS
# VL: DIQMTQSPSSLSASVGDRVTITCRASQSISSYINWYQQKPGKAPKLLIYATSNLQSGVPSRFSGSGSGTDFTLTISSLQPEDFATYYCQQYRRLPWSFGQGTKLEIKR
# B9: AB200-R1H32-R2Vk22 (Fab, V domains shown)
# VH: QVQLVQSGAEVKKPGSSVKVSCKASGGTFSNYWMHWVRQAPGQGLEWMGATYRSHSDTYYNQKFKSRVTITADKSTSTAYMELSSLRSEDTAVYYCARGAIYHGYDVIDNWGQGTLVTVSS
# VL: DIQMTQSPSSLSASVGDRVTITCRASQSISSYLNWYQQKPGKAPKLLIYATSNLQSGVPSRFSGSGSGTDFTLTISSLQPEDFATYYCQQYRKIPWSFGQGTKLEIKR
# B10: AB200-R1H32-R2Vk30 (Fab, V domains shown)
# VH: QVQLVQSGAEVKKPGSSVKVSCKASGGTFSNYWMHWVRQAPGQGLEWMGATYRSHSDTYYNQKFKSRVTITADKSTSTAYMELSSLRSEDTAVYYCARGAIYHGYDVIDNWGQGTLVTVSS
# VL: DIQMTQSPSSLSASVGDRVTITCRASQSISSYLNWYQQKPGKAPKLLIYATSNLQIGVPSRFSGSGSGTDFTLTISSLQPEDFATYYCQQYRRIPWTFGQGTKLEIKR
# B11: AB200-R1H32-R2Vk37 (Fab, V domains shown)
# VH: QVQLVQSGAEVKKPGSSVKVSCKASGGTFSNYWMHWVRQAPGQGLEWMGATYRSHSDTYYNQKFKSRVTITADKSTSTAYMELSSLRSEDTAVYYCARGAIYHGYDVIDNWGQGTLVTVSS
# VL: DIQMTQSPSSLSASVGDRVTITCRASQSISSYINWYQQKPGKAPKLLIYATSNLQSGVPSRFSGSGSGTDFTLTISSLQPEDFATYYCQQYRKIPWSFGQGTKLEIKR
# B12: AB200-R1H32-R2Vk26 (Fab, V domains shown)
# VH: QVQLVQSGAEVKKPGSSVKVSCKASGGTFSNYWMHWVRQAPGQGLEWMGATYRSHSDTYYNQKFKSRVTITADKSTSTAYMELSSLRSEDTAVYYCARGAIYHGYDVIDNWGQGTLVTVSS
# VL: DIQMTQSPSSLSASVGDRVTITCRASQSISSYLNWYQQKPGKAPKLLIYATSNIQSGVPSRFSGSGSGTDFTLTISSLQPEDFATYYCQQFRRLPWTFGQGTKLEIKR
# B13: AB200-R1a-Fab_VH41 (Fab, V domains shown)
# VH: QVQLVQSGAEVKKPGSSVKVSCKASGGTFSNYWMHWVRQAPGQGLEWMGATYRGHSDTYYNEKFKGRVTITADKSTSTAYMELSSLRSEDTAVYYCARGAIYHGYDILNNWGQGTLVTVSS
# VL: DIQMTQSPSSLSASVGDRVTITCSATQDISNYLNWYQQKPGKAPKLLIYFTSNLQSGVPSRFSGSGSGTDFTLTISSLQPEDFATYYCQQYRKLPWTFGQGTKLEIKR
# B14: AB200-R1a-Fab_VH51 (Fab, V domains shown)
# VH: QVQLVQSGAEVKKPGSSVKVSCKASGGTFSNYWMHWVRQAPGQGLEWMGATYRGHSDTNYNQKFKGRVTITADKSTSTAYMELSSLRSEDTAVYYCARGTIYHGFDVLDNWGQGTLVTVSS
# VL: DIQMTQSPSSLSASVGDRVTITCSATQDISNYLNWYQQKPGKAPKLLIYFTSNLQSGVPSRFSGSGSGTDFTLTISSLQPEDFATYYCQQYRKLPWTFGQGTKLEIKR
# B15: AB200-R1H32-R2Vk44 (Fab, V domains shown)
# VH: QVQLVQSGAEVKKPGSSVKVSCKASGGTFSNYWMHWVRQAPGQGLEWMGATYRSHSDTYYNQKFKSRVTITADKSTSTAYMELSSLRSEDTAVYYCARGAIYHGYDVIDNWGQGTLVTVSS
# VL: DIQMTQSPSSLSASVGDRVTITCRASQSISSYINWYQQKPGKAPKLLIYATSNLQIGVPSRFSGSGSGTDFTLTISSLQPEDFATYYCQQYRRLPWSFGQGTKLEIKR
# B16: AB200-R1H32-R2Vk18 (Fab, V domains shown)
# VH: QVQLVQSGAEVKKPGSSVKVSCKASGGTFSNYWMHWVRQAPGQGLEWMGATYRSHSDTYYNQKFKSRVTITADKSTSTAYMELSSLRSEDTAVYYCARGAIYHGYDVIDNWGQGTLVTVSS
# VL: DIQMTQSPSSLSASVGDRVTITCRASQSISSYINWYQQKPGKAPKLLIYAASSLQSGVPSRFSGSGSGTDFTLTISSLQPEDFATYYCQQFRKIPWTFGQGTKLEIKR
# B17: AB200-R1H32-R2Vk40 (Fab, V domains shown)
# VH: QVQLVQSGAEVKKPGSSVKVSCKASGGTFSNYWMHWVRQAPGQGLEWMGATYRSHSDTYYNQKFKSRVTITADKSTSTAYMELSSLRSEDTAVYYCARGAIYHGYDVIDNWGQGTLVTVSS
# VL: DIQMTQSPSSLSASVGDRVTITCRASQSISSYINWYQQKPGKAPKLLIYATSNIQSGVPSRFSGSGSGTDFTLTISSLQPEDFATYYCQQYRRIPWTFGQGTKLEIKR
# B18: AB200-R1H32-R2Vk23 (Fab, V domains shown)
# VH: QVQLVQSGAEVKKPGSSVKVSCKASGGTFSNYWMHWVRQAPGQGLEWMGATYRSHSDTYYNQKFKSRVTITADKSTSTAYMELSSLRSEDTAVYYCARGAIYHGYDVIDNWGQGTLVTVSS
# VL: DIQMTQSPSSLSASVGDRVTITCRASQSISSYLNWYQQKPGKAPKLLIYATSNLQSGVPSRFSGSGSGTDFTLTISSLQPEDFATYYCQQFRKIPWTFGQGTKLEIKR
# B19: AB200-R1H32-R2Vk25 (Fab, V domains shown)
# VH: QVQLVQSGAEVKKPGSSVKVSCKASGGTFSNYWMHWVRQAPGQGLEWMGATYRSHSDTYYNQKFKSRVTITADKSTSTAYMELSSLRSEDTAVYYCARGAIYHGYDVIDNWGQGTLVTVSS
# VL: DIQMTQSPSSLSASVGDRVTITCRASQSISSYLNWYQQKPGKAPKLLIYATSNIQSGVPSRFSGSGSGTDFTLTISSLQPEDFATYYCQQYRRIPWTFGQGTKLEIKR
# B20: AB200-R1H32-R2Vk32 (Fab, V domains shown)
# VH: QVQLVQSGAEVKKPGSSVKVSCKASGGTFSNYWMHWVRQAPGQGLEWMGATYRSHSDTYYNQKFKSRVTITADKSTSTAYMELSSLRSEDTAVYYCARGAIYHGYDVIDNWGQGTLVTVSS
# VL: DIQMTQSPSSLSASVGDRVTITCRASQSISSYLNWYQQKPGKAPKLLIYATSNLQIGVPSRFSGSGSGTDFTLTISSLQPEDFATYYCQQYRKIPWSFGQGTKLEIKR
# Assays:
# Assay in all cases: Octet BLI; Fab 200 nM
# [1] = biological target: T2, extracellular domain of rhesus monkey BCMA (rhesus monkey, UniProt F7FFA0 1-53)
# T2 construct: extracellular domain; also called RhBCMA
# [2] = biological target: T1, extracellular domain of human BCMA
# [3] = biological target: T2, extracellular domain of rhesus monkey …; remark: listed apart in the source
# [4] = biological target: T1, extracellular domain of human BCMA; remark: listed apart in the source
# T2 sequence (F7FFA0 entry or part of it): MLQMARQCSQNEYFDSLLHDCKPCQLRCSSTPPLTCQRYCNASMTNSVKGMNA
Binder,Kd [1],Kd [2],Kd [3],Kd [4]
B1,32.2 nM,21 nM,–,–
B2,–,–,4.29 nM,0.996 nM
B3,–,–,4.57 nM,0.946 nM
B4,–,53.1 nM,–,–
B5,–,–,9.2 nM,1.29 nM
B6,–,–,3.69 nM,1.14 nM
B7,–,–,5.35 nM,1.15 nM
B8,–,–,4.53 nM,1.12 nM
B9,–,–,5.64 nM,1.06 nM
B10,–,–,3.92 nM,0.816 nM
B11,–,–,4.41 nM,0.85 nM
B12,–,–,3.85 nM,1.06 nM
B13,–,14.5 nM,–,–
B14,–,18.9 nM,–,–
B15,–,–,3.32 nM,0.71 nM
B16,–,–,6.3 nM,1.52 nM
B17,–,–,5.08 nM,1.03 nM
B18,–,–,5.08 nM,1.13 nM
B19,–,–,5.62 nM,1.04 nM
B20,–,–,4.83 nM,0.873 nM
